The target in test [1] is full-length MyD88 fused to GFP at the N-terminus (human) (UniProt Q99836). As to the kind of experiment: single-molecule fluorescence brightness analysis.
Test [2] has the same target. Kind of test: photon counting histogram.

Broadly, the Kd is the concentration at which binding is half-saturated. The term stoichiometry N denotes the number of molecules, sites or subunits per partner or assembly.

In test [1], “full-length MyD88 fused to GFP at the N-terminus (from UniProt Q99836 1-296) (natural protein)” registered a Kd of 120 nM and a stoichiometry N greater than 80 GFP. The same substance came in with a stoichiometry N in test [2] greater than 100 proteins.
